# Source: the supplement of paper PMC10126150
# ± gives the standard deviation of the averaged measurements.
# Tested on: ATP
# Assay: switch fluorescence ratio, 500 uM ATP over buffer (Cy3 cluster intensity, sum of 5 cycles each) (fold (ratio)); higher = stronger signal-on switching upon ATP binding; sequences stand for … in TCGTCGGCAGCGTCAGATGTGTATAAGAGACAGTTTTTTTTTTTTTTTTTTTTTTTTT…TC
# Settings: aptamer strand: ATP DNA aptamer (quencher-CACCTGGGGGAGTATTGCGGAGGAAGG + anchor), 100 nM annealed; ATP concentration: 500 uM
# Outline: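 The fluorescence ratio divides summed target-cycle Cy3 intensity by summed buffer-cycle Cy3 intensity for each cluster and is averaged per switch-domain sequence. Cy3-labelled switching-strand clusters on a modified Illumina MiSeq flow-cell were annealed to 100 nM quencher-labelled ATP aptamer, then imaged in selection buffer and again after 15 min with 500 uM ATP at 22 °C. Five such cycles were run, with NaOH stripping and re-annealing between them, and clusters outside 100-1000 RFU were excluded.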
# 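Also: ATP exposure 15 min at 22 °C before imaging.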
row,Sequence,switch fluorescence ratio
1,TCATGACTTT,1.012 ± 0.0038
2,TCATGATTTT,0.9992 ± 0.0048
3,TCATGCATGT,1.035 ± 0.01
4,TCATGCCCTT,1.02 ± 0.033
5,TCATGCTGGT,1.01 ± 0.024
6,TCATGGAAGG,1.01 ± 0.026
7,TCATGGAGAT,0.965 ± 0.033
8,TCATGGCCAG,1.04 ± 0.078
9,TCATGGGCTT,1.01 ± 0.0059
10,TCATGGGGCT,1.02 ± 0.019
11,TCATGGTATT,1.01 ± 0.011
12,TCATGGTGGG,1 ± 0.025
13,TCATGGTTGG,0.997 ± 0.028
14,TCATGGTTTT,0.977 ± 0.016
15,TCATGTGGTA,0.9915 ± 0.0093
16,TCATGTGTTG,0.992 ± 0.045
17,TCATTAAGGC,1.01 ± 0.015
18,TCATTAAGGG,0.99105 ± 0.00093
19,TCATTATAAT,1.006 ± 0.0062
20,TCATTATTAA,1.01 ± 0.027
21,TCATTCGGAG,1.02 ± 0.014
22,TCATTCGTTT,1.01 ± 0.016
23,TCATTCTGGG,1.008 ± 0.0097
24,TCATTGAAGT,0.991 ± 0.008
25,TCATTGATCG,0.987 ± 0.011

row,Sequence,switch fluorescence ratio
1,TCATTGATTG,0.999 ± 0.022
2,TCATTGGGGT,0.957 ± 0.033
3,TCATTGGGTT,0.977 ± 0.026
4,TCATTGGTAG,1.001 ± 0.0054
5,TCATTGGTT,0.985 ± 0.021
6,TCATTGTTAT,0.999 ± 0.036
7,TCATTTAAGA,0.954 ± 0.014
8,TCATTTAGGG,0.9893 ± 0.0081
9,TCATTTATCA,1 ± 0.053
10,TCATTTATGG,0.999 ± 0.023
11,TCATTTATTA,1.04 ± 0.023
12,TCATTTATTT,0.98 ± 0.015
13,TCATTTCCGG,1.046 ± 0.0072
14,TCATTTCGGC,0.982 ± 0.032
15,TCATTTCTGC,1.01 ± 0.037
16,TCATTTGGAG,0.9816 ± 0.0076
17,TCATTTGGCA,0.983 ± 0.01
18,TCATTTTCCG,0.996 ± 0.043
19,TCATTTTGG,0.992 ± 0.015
20,TCATTTTTCT,0.98 ± 0.021
21,TCATTTTTGG,1 ± 0.012
22,TCCAAAGATG,0.9892 ± 0.005
23,TCCAAATTTT,1.02 ± 0.016
24,TCCAACTGCA,1.5 ± 0.087
25,TCCAAGGGTG,1.46 ± 0.15

row,Sequence,switch fluorescence ratio
1,TCCAATGATG,1.03 ± 0.018
2,TCCACGGGTA,1.08 ± 0.068
3,TCCACTGGAT,1.03 ± 0.013
4,TCCAGACTCT,1.02 ± 0.011
5,TCCAGATTTT,1 ± 0.012
6,TCCAGCCCGT,1.02 ± 0.027
7,TCCAGCTAAA,1.09 ± 0.014
8,TCCAGGAGGT,1.02 ± 0.033
9,TCCAGGCGTA,1.021 ± 0.0089
10,TCCAGGCTTT,1.05 ± 0.071
11,TCCAGGGGGG,1.18 ± 0.27
12,TCCAGGGGTC,1.38 ± 0.13
13,TCCAGGTGCG,2.96 ± 0.33
14,TCCAGTCATT,0.998 ± 0.01
15,TCCAGTGGCT,1 ± 0.017
16,TCCAGTGGGA,1.11 ± 0.087
17,TCCAGTGTCG,1.01 ± 0.056
18,TCCAGTGTTG,1.08 ± 0.071
19,TCCAGTTATT,1 ± 0.019
20,TCCATACAAG,0.983 ± 0.055
21,TCCATAGTGA,1.26 ± 0.085
22,TCCATCGGGA,1.14 ± 0.14
23,TCCATCGGGT,1.01 ± 0.038
24,TCCATGTGTT,1.01 ± 0.037
25,TCCATTTATC,0.982 ± 0.04

row,Sequence,switch fluorescence ratio
1,TCCCATTTTG,1.01 ± 0.043
2,TCCCCAATAA,3.11 ± 0.39
3,TCCCCATGGT,2.07 ± 0.068
4,TCCCCCACAG,2.05 ± 0.22
5,TCCCCGTCTG,1.14 ± 0.15
6,TCCCCTGTCG,1.07 ± 0.085
7,TCCCCTTGCT,1.03 ± 0.094
8,TCCCGATTGG,0.959 ± 0.028
9,TCCCGGCCTG,1.012 ± 0.0041
10,TCCCGGGGGG,1.14 ± 0.26
11,TCCCGGGTTA,1.01 ± 0.013
12,TCCCTATCAC,1.1 ± 0.042
13,TCCCTTTGGG,0.971 ± 0.038
14,TCCGAAACAT,1.575 ± 0.011
15,TCCGAAAGGG,1.052 ± 0.0062
16,TCCGAGGGTT,1.214 ± 0.011
17,TCCGGATTTT,1.01 ± 0.016
18,TCCGGCGGAC,1.149 ± 0.0078
19,TCCGGCGGCC,1.09 ± 0.024
20,TCCGGCGGTT,1.01 ± 0.04
21,TCCGGCGTAT,1.131 ± 0.0055
22,TCCGGGAATT,1.02 ± 0.021
23,TCCGGGCCCA,1.038 ± 0.0023
24,TCCGGTATCG,1.04 ± 0.016
25,TCCGTAAATT,1.14 ± 0.013
